Key:
[1] = tested on: Jurkat cells; test: anti-CD3 induced Jurkat apoptosis (Annexin V/PI, FACS); assay type: cell-based; set-up: Cell apoptosis (Annexin V, FACS): unit not given here; settings: for Cell apoptosis (positive staining with Annexin V): Example 12; for Cell apoptosis (Annexin V, FACS): Example 14
Protocol: Non-tissue treated 24 well plates (Decton Dickinson, Mansfield, Mass.) were coated with 0.5 ml of 1 ug/ml anti-CD3 (Farmingen) in PBS for 90 min at 37° C. The plate was washed once with PBS.
Cells were incubated overnight at 37° C. incubator and cells were then stained by Annexin V and PI staining. Apotosis was analyzed by flow cytometer (FACS). Cell apoptosis was indicated by positive staining with Annexin V.

[2] = target: T1, Fas-FasLigand interaction (Homo sapiens, UniProt P48023); test: ELISA: FLINT prevents Fas-FasLigand interaction; assay type: binding; settings: hFasLigand 30 ng, mrecFas 100 ng adsorbed
T1 sequence (P48023 103-281 limits assumed): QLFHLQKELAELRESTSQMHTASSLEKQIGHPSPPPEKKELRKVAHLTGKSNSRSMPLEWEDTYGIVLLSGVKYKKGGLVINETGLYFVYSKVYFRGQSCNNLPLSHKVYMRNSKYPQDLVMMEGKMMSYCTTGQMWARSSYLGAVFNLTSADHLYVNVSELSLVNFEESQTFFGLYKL
Protocol: As above, mrecFas (100 ng) was adsorbed on to ELISA plate. Again the plate was blocked by TBST and 0.1% Gelatine. […] As before, after washing of the plate, anti-mouse-Abs-HRP (3000 dilution, Bio-Rad) was added to the wells. After washings, visualization enzymatic reaction using ABTS as a substrate was performed.

[3] = target: T2, TNFβ (Homo sapiens, UniProt P01374); test: Dot blot binding of mFLINT to TNF ligands
T2 construct: purchased
T2 sequence (P01374 35-205): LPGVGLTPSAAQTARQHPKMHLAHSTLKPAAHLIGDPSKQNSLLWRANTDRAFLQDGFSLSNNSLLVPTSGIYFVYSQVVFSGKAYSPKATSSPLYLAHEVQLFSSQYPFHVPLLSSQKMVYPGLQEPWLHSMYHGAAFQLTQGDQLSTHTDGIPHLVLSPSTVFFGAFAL

[4] = target: T3, TRAIL (Homo sapiens, UniProt P50591); test: Dot blot binding of mFLINT to TNF ligands
T3 construct: purchased RnD Systems
T3 sequence (P50591 114-281 limits assumed, species assumed): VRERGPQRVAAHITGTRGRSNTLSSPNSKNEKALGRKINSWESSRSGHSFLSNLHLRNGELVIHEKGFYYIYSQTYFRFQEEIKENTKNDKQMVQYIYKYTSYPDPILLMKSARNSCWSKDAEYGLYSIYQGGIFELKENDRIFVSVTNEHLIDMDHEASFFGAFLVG
Protocol: (§1) Dot blot experiment was performed to scan known TNF ligands that are commercially available TRAIL and FasL for interaction with mFLINT.
(§2) TRAIL (RnD Systems) and FasL (Kamiya Biomedical Company) were spotted on a nitrocellulose paper and incubated with purified mFLINT-Flag. mFLINT was washed away and binding mFLINT was detected using anti Flag antibody. Both OPG2Fc and mFLINT-Flag were overexpressed and purified according the examples above. […] The nitrocellulose paper was subsequently mixed with the cell lysate containing FasL-Myc, and further incubated on a rotator for 1 hour at room temperature. Secondary and tertiary incubations were performed with anti-myc antibody and anti-mouse IgG-HRP for 1 hour and 30 minutes respectively.

[5] = target: T4, FasL (Homo sapiens, UniProt P48023); test: Dot blot binding of mFLINT to TNF ligands; settings: chemiluminescence detection
T4 construct: made in house
T4 sequence (P48023 1-281): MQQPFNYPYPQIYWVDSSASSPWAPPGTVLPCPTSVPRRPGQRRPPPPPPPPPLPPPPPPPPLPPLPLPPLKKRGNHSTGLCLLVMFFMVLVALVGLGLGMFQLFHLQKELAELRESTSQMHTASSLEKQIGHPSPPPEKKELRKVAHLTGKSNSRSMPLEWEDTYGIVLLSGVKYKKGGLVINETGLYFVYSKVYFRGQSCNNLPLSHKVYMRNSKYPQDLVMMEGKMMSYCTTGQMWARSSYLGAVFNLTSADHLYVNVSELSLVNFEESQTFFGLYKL
Protocol: as §1, §2

[6] = tested on: osteoclasts; test: Porcine osteoclast differentiation assay (TRAP staining); assay type: cell-based, pig; settings: mean and standard error of 6 wells
Excerpt: Neonatal pigs (aged 1-5 days) were euthanized with CO2, the appendages were rinsed with 70% ethanol, the soft tissues were removed, and the humeri, radii, ulnae, femora, tibiae and fibulae were excised. The long bones were placed in ice-cold calcium and magnesium-free Hank's balanced salt solution (CMF-HBSS, Gibco BRL) and cleaned of all soft tissues. The bones were split longitudinally and the endosteal surfaces were scraped to remove both the marrow and trabecular bone. The suspension of trabecular bone particles and marrow cells was agitated by vigorous shaking and passed through a […] and then […] sieve. Cells were centrifuged at 500×g for 10 minutes at 4° C., the pellet was resuspended in CMF-HBSS, and then separated on a Ficoll-Paque gradient (Pharmacia, Piscataway, N.J.). The mononuclear cell fraction from the gradient was washed twice in CMF-HBSS and passed through a […] sieve. The cells were suspended in growth medium consisting of a-MEM (pH 7.2, which was modified to contain 8.3 mM NaHCO3 (Gibco BRL, Grand Island, N.Y.)), 10% heat-inactivated fetal bovine serum (FBS, Hyclone, Logan, Utah) and 2% antibiotic/antimycotic solution (Gibco BRL, Grand Island, N.Y.) and seeded onto tissue culture dishes at a density of 1×10^6 cells/cm^2. A typical marrow cell yield was between 1-2×10^9 cells/animal, which varied with the size of the animal. The cells were incubated at 37° C. in a humid incubator with 5% CO2. […] Following 5 days of culture, the cells were fixed with formalin (3.7% for 10 min) and then stained for tartrate-resistant acid phosphatase (TRAP) as in Example 6. The number of osteoclasts (TRAP-positive cells containing 3 or more nuclei) was quantitated.

[7] = tested on: bone marrow progenitor cells; test: CFU assay of bone marrow cells expanded in vitro with SCF and IL-6; assay type: cell-based, mouse; settings: FIG. 9, mFLINT 1 ug/ml, 3 days with SCF and IL-6
Protocol: A—Bone marrow cells from irradiated mice—This experiment was designed to determine whether mFLINT could improve the recovery of murine hematopoietic progenitor cells from irradiation, by forcing in vitro expansion with hematopoietic cytokines. Mice were injected with 3 mg of 5-flouro-uracil, i.p., and four days later, femurs were removed and flushed to isolate bone marrow (BM) cells. 1×10^6 BM cells were seeded in each well of a 24 well tray in triplicate in Iscoves modified dulbeccos media (IMDM)+10% FBS and were stimulated for 3 days with the cytokines stem cell factor (SCF) and IL-6, in the presence or absence of mFLINT (1 ug/ml). After a 3-day in vitro expansion period, 5×10^3 cells were plated out in triplicate for the CFU assay.

B1: mFLINT: mature FLINT without leader peptide (FIG. 3), soluble TNFR superfamily member, made according to Examples 8 and 9 (protein)
chain: VAETPTYPWRDAETGERLVCAQCPPGTFVQRPCRRDSPTTCGPCPPRHYTQFWNYLERCRYCNVLCGEREEEARACHATHNRACRCRTGFFAHAGFCLEHASCPPGAGVIAPGTPSQNTQCQPCPPGTFSASSSSSEQCQPHRNCTALGLALNVPGSSSHDTLCTSCTGFPLSTRVPGAEECERAVIDFVAFQDISIKRLQRLLQALEAPEGWGPTPRAGRAALQLKLRRRLTELLGAQDGALLVRLLQALRVARMPGLERSVRERFLPVH
modifications: glycosylated
- Cell apoptosis (positive staining with Annexin V) ([1]; Jurkat + antiCD3 + 1 ug test agent): 27.77
- Cell apoptosis (positive staining with Annexin V) ([1]; Jurkat + antiCD3 + 2 ug test agent): 18.67
- Cell apoptosis (Annexin V, FACS) ([1]; anti CD3 + 15.625 ng): 28.80
- Cell apoptosis (Annexin V, FACS) ([1]; anti CD3 + 31.25 ng): 28.21
- Cell apoptosis (Annexin V, FACS) ([1]; anti CD3 + 62.5 ng): 28.99
- Cell apoptosis (Annexin V, FACS) ([1]; anti CD3 + 125 ng): 29.4
- Cell apoptosis (Annexin V, FACS) ([1]; anti CD3 + 250 ng): 28.93
- Cell apoptosis (Annexin V, FACS) ([1]; anti CD3 + 500 ng): 27.48
- Cell apoptosis (Annexin V, FACS) ([1]; anti CD3 + 1000 ng): 24.29
- Cell apoptosis (Annexin V, FACS) ([1]; anti CD3 + 2000 ng): 17.02
- Cell apoptosis (Annexin V, FACS) ([1]; anti CD3 + 3000 ng): 14.68
- OD, 405 nM ([2]; FLINT 1 ng): 0.36
- OD, 405 nM ([2]; FLINT 5 ng): 0.36
- OD, 405 nM ([2]; FLINT 10 ng): 0.36
- OD, 405 nM ([2]; FLINT 50 ng): 0.28
- OD, 405 nM ([2]; FLINT 100 ng): 0.18
- OD, 405 nM ([2]; FLINT 500 ng): 0.06
- binding in dot blot [3]: No appreciable binding
- binding in dot blot [4]: No appreciable binding
- binding in dot blot [5]: bound to FasL specifically
- Osteoclasts/well ([6]; FLINT 0.01 ng/ml, control 214.83): 68.83 ± 6.28 Osteoclasts/well
- Osteoclasts/well ([6]; FLINT 0.10 ng/ml): 176.17 ± 23.01 Osteoclasts/well
- Osteoclasts/well ([6]; FLINT 1.00 ng/ml): 228.50 ± 17.26 Osteoclasts/well
- Osteoclasts/well ([6]; FLINT 10.00 ng/ml): 228.50 ± 29.29 Osteoclasts/well
- Osteoclasts/well ([6]; FLINT 100.00 ng/ml): 382.33 ± 26.59 Osteoclasts/well
- CFU-GEMM colonies ([7]; control 750, p<0.007): 3,000 colonies/3×10^6 stimulated BM cells
- CFU-GM colonies ([7]; control 8,000, p<0.039): 15,000 colonies/3×10^6 stimulated BM cells
- CFU-E colonies ([7]; control 15,000, p<0.003): 33,000 colonies/3×10^6 stimulated BM cells
